Here are results for twelve molecules from patent publication US20200255508A1 (AbbVie / Abbott, published 2020).

Sequences and labels used below:
B1: E9-SE3 (antibody, V domains shown)
VH: EVQLQESGPGLVKPGETLSLTCTVSGGSISSSSYYWGWIRQAPGKGLEWIGDIYYTGSTYYNPSLKSRVTISVDTSKNQFYLKLSSVRAEDTAVYYCAREDVILRGGSDYWGQGTLVTVSS
VL: SYELTQPPSVSVSPGQTASITCSGQRLGDKYASWYQQKPGQSPVLVIYEDSKRPSGIPERFSGSNSGDTATLTISGTQPMDEADYYCQAWDRDTGVFGYGTRVTVLG
notes: full-length human IgG1
B2: E9-SE5 (antibody, V domains shown)
VH: B1 VH with G15S, A42P, Y81S, R88T, E90A
VL: EYVLTQSPDFQSVTPKEKVTITCSGQRLGDKYASWYQQKPDQSPKLVIYEDSKRPSGVPSRFSGSNSGDDATLTINSLEAEDAATYYCQAWDRDTGVFGQGTKVEIKR
notes: full-length human IgG1
B3: E9-SE4 (antibody, V domains shown)
VH: B1 VH with G15S, A42P, Y81S, R88T, E90A
VL: B1 VL with S1L, E3V, P79T, Y86L, Y99G, R102K
notes: full-length human IgG1
B4: E9-SE6 (antibody, V domains shown)
VH: B1 VH
VL: B1 VL with S1L, E3V, P79T, Y86L, Y99G, R102K
notes: full-length human IgG1
B5: E9-SE8 (antibody, V domains shown)
VH: B1 VH
VL: B2 VL
notes: full-length human IgG1
B6: E9-SE2 (antibody, V domains shown)
VH: EVQLVESGGGLVQPGGSLRLSCAVSGGSISSSSYYWGWIRQAPGKGLEWIGDIYYTGSTYYNPSLKSRVTISVDTSKNSFYLQMNSLRAEDTAVYYCAREDVILRGGSDYWGQGTLVTVSS
VL: B1 VL
notes: full-length human IgG1
B7: E9-SE7 (antibody, V domains shown)
VH: B6 VH
VL: B2 VL
notes: full-length human IgG1
B8: E9.17 (antibody, V domains shown)
VH: B1 VH with G15S, A42P, Y81S, R88T, E90A, D101E, V102A, R105G
VL: SYELTQPPSVSVSPGQTASITCSGQRLGDKYASWYQQKPGQSPVLVIYEDSKRPSGIPERFSGSNSGDTATLTISGTQPMDEADYYCQAWDRDTGVFGYGTKVTVL
notes: also called DLL4-E9-17 hIgG1/L
B9: E9.10C (antibody, V domains shown)
VH: EVQLQESGPGLVKPSETLSLTCTVSGGSISSGSYYWGWIRQPPGKGLEWIGDIYYTGSTYYNPSLKSRVTISVDTSKNQFSLKLSSVTAADTAVYYCARQAVMYGGGSDNWGQGTLVTVSS
VL: SYELTQPPSVSVSPGQTASITCSGDSLGDKYVSWYQQKPGQSPVLVIYEDSERPSGIPERFSGSNSGDTATLTISGTQAMDEADYYCQAWDSETGVFGSGTKVT
B10: E9.7E (antibody, V domains shown)
VH: B9 VH with G32S, T56A, S67D, Q100E, A101D, V102M, M103I, Y104L, S108A
VL: B9 VL with S26R, T94A
B11: E9.71(L) (antibody, human IgG1, V domains shown)
VH: B9 VH with G32S, V102L, M103A, Y104L, N110K
VL: B1 VL with Y99G, R102K, V103L
notes: Methionine in CDR-H3 of E9-71 changed to leucine
B12: E9.71(M)-3 (antibody, human IgG1, V domains shown)
VH: B9 VH with G32S, V102L, M103A, Y104M, N110K
VL: YELTQPPSVSVSPGQTASITCSGQRLGDKYASWYQQKPGQSPVLVIYEDSKRPSGIPERFSGSNSGDTATLTISGTQPMDEADYYCQAWDRDTGVFGGGTKLTVLG

Substitutions are numbered along the chain they refer to.
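For koff in this document: surface plasmon resonance on a Biacore instrument, antibodies captured on immobilized anti-human Fc, purified recombinant DLL4 extracellular domain injected as analyte, binding followed over time.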
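For kon in this document: surface plasmon resonance on a Biacore instrument, antibodies captured on immobilized anti-human Fc, purified recombinant DLL4 extracellular domain injected as analyte, binding followed over time.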

T6 sequence (Q9JI71 27-686): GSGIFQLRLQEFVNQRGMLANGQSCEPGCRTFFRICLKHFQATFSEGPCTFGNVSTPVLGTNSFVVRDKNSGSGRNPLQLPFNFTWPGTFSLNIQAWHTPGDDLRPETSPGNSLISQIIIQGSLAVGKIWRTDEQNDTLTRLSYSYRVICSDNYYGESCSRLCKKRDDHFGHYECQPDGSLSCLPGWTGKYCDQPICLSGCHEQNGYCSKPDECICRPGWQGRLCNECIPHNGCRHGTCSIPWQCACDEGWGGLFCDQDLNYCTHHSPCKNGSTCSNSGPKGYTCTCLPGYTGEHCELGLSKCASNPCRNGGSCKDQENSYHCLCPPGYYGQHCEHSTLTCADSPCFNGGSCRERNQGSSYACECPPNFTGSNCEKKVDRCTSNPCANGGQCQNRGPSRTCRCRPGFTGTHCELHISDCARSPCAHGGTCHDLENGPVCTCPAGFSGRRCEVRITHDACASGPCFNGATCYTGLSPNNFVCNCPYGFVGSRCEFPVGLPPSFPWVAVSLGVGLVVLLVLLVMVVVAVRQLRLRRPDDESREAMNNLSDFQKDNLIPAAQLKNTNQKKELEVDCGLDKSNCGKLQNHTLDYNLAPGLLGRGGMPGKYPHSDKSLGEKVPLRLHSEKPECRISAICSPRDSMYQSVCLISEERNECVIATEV
T2 sequence (Q9JI71 27-532): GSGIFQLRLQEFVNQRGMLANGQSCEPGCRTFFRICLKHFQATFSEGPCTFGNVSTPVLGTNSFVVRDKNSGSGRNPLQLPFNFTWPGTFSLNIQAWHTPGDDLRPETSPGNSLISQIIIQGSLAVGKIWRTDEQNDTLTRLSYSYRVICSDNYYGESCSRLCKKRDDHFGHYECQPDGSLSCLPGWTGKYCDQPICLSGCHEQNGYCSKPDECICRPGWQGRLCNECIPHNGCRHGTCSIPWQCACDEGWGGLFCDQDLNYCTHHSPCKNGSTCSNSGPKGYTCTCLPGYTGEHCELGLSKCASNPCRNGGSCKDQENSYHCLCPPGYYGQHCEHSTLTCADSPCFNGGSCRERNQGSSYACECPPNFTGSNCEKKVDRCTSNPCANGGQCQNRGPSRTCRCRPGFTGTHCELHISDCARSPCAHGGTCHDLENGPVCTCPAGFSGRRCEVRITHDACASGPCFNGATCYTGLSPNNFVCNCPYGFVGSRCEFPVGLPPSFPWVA

The first assay deals with T1, human DLL4 extracellular domain (human, UniProt Q9NR61 27-529).
T1 construct: extracellular domain; coated on plates in the sVEGFR1 assay; also called huDLL4 ECD; Human DLL4 ECD
The assay is described as follows: Biacore SPR. (In general: Surface plasmon resonance follows binding to a sensor surface in real time, without labels.)
Experimental: (§1) The BIACORE® surface plasmon resonance assay (Biacore, Inc., Piscataway, N.J., US) determines the affinity of antibodies with kinetic measurements of on-rate and off-rate constants. Binding of DLL4 antibodies to a purified recombinant DLL4 extracellular domain is determined by surface plasmon resonance-based measurements with a Biacore® instrument (either a Biacore 2000, Biacore 3000, or Biacore T100, GE Healthcare, Piscataway, N.J. US) using running buffer HBS-EPB (10 mM HEPES [pH 7.4], 150 mM NaCl, 3 mM EDTA, 0.1 mg/ml BSA and 0.005% surfactant P20) at 25° C. For example, approximately 9000 RU of goat anti-human Fc specific polyclonal antibody (Thermo Fisher Scientific Inc., Rockford, Ill., US) diluted in 10 mM sodium acetate (pH 4.5) is directly immobilized across a CM5 research grade biosensor chip using a standard amine coupling kit according to manufacturer's instructions and procedures at 25 μg/ml. Unreacted moieties on the biosensor surface are blocked with ethanolamine. For kinetic analysis, rate equations derived from the 1:1 Langmuir binding model are fitted simultaneously to multiple antigen injections (using global fit analysis) with the use of Scrubber 2 (BioLogic Software). […] The equilibrium dissociation constant KD (M) of the reaction between antibodies and the target antigen is then calculated from the kinetic rate constants by the following formula: KD=Koff/Kₒₙ. Binding is recorded as a function of time and kinetic rate constants are calculated. In this assay, on-rates as fast as 10⁶ M⁻¹s⁻¹ and off-rates as slow as 10⁻⁶ s⁻¹ can be measured.
Usually Kd stands for a measure of binding affinity in units of concentration. A low value points to tighter binding. The molecule B1 came in with a Kd of 2.26 nM.

Molecule B2 showed a Kd of 1.57 nM.

As to B3, binding was characterised by a dissociation constant (Kd) of 2.38 nM.

B4: the affinity, expressed as Kd, was 0.64 nM.

For B5, the Kd was determined as 2 nM.

Consider B6, for which the Kd was 2.43 nM.

B7 had a dissociation constant (Kd) of 1.69 nM.

A further assay addresses T2, mouse DLL4 extracellular domain (mouse, UniProt Q9JI71 27-532).
T2 construct: extracellular domain; also called muDLL4 ECD; Mouse DLL4 ECD
The assay is described as follows: Biacore SPR.
Experimental: as §1
B1 gave a Kd of 12.1 nM.

The molecule B2 showed a Kd of 12.8 nM.

With B3, the Kd turned out to be 10.5 nM. The Kd values of the last two molecules are within 1.5-fold of each other.

As for B4, the Kd came out at 10 nM.

In turn, B5 yielded a Kd of 13 nM.

In turn, B6 displayed a Kd of 15.1 nM.

On to B7, for which binding was put at a Kd of 16.2 nM. The Kd values of the last two molecules are within 1.5-fold of each other.

The target of a further assay is T1, human DLL4 extracellular domain. Put plainly: Biacore SPR. The source holds these as a separate data set.
Experimental: (§2) Binding of DLL4 antibodies to a purified recombinant DLL4 extracellular domain is determined by surface plasmon resonance-based measurements with a Biacore® instrument (either a Biacore 2000, Biacore 3000, or Biacore T100, GE Healthcare, Piscataway, N.J. US) using running buffer HBS-EPB (10 mM HEPES [pH 7.4], 150 mM NaCl, 3 mM EDTA, 0.1 mg/ml BSA and 0.005% surfactant P20) at 25° C. For example, approximately 9000 RU of goat anti-human Fc specific polyclonal antibody (Thermo Fisher Scientific Inc., Rockford, Ill., US) diluted in 10 mM sodium acetate (pH 4.5) is directly immobilized across a CM5 research grade biosensor chip using a standard amine coupling kit according to manufacturer's instructions and procedures at 25 μg/ml. Unreacted moieties on the biosensor surface are blocked with ethanolamine. For kinetic analysis, rate equations derived from the 1:1 Langmuir binding model are fitted simultaneously to multiple antigen injections (using global fit analysis) with the use of Scrubber 2 (BioLogic Software). […] The equilibrium dissociation constant KD (M) of the reaction between antibodies and the target antigen is then calculated from the kinetic rate constants by the following formula: KD=Koff/Kₒₙ. Binding is recorded as a function of time and kinetic rate constants are calculated. In this assay, on-rates as fast as 10⁶ M⁻¹s⁻¹ and off-rates as slow as 10⁻⁶ s⁻¹ can be measured.
The term koff denotes the rate constant with which the complex falls apart. Low values mean slow dissociation, high ones fast dissociation. What is called kon is the rate constant with which the complex forms. Lower therefore signals slow association. Molecule B8 yielded a Kd of 0.1 nM, a koff of 4.4e-06 s⁻¹ and a kon of 43900 M⁻¹ s⁻¹.

B9 came in with a Kd of 0.38 nM, a koff of 4.59e-05 s⁻¹ and a kon of 120000 M⁻¹ s⁻¹.

B10 registered a Kd of 0.27 nM, a koff of 4.12e-05 s⁻¹ and a kon of 152000 M⁻¹ s⁻¹.

The target of the next assay is T2, mouse DLL4 extracellular domain. The assay is described as follows: Biacore SPR. The source holds these as a separate data set.
Experimental: as §2
In the case of B8, the Kd is 0.38 nM, the koff was found to be 1.41e-05 s⁻¹ and the kon came out at 37000 M⁻¹ s⁻¹.

Turning to B9, the Kd stood at 1.6 nM, the koff was 0.000121 s⁻¹ and the kon was determined as 73700 M⁻¹ s⁻¹.

B10 registered a Kd of 2.3 nM, a koff of 0.000221 s⁻¹ and a kon of 95300 M⁻¹ s⁻¹.

Another assay addresses T3, human DLL4-his (human, UniProt Q9NR61 27-529).
T3 construct: extracellular domain
Put plainly: ELISA on DLL4-his. For orientation: ELISA stands for enzyme-linked immunosorbent assay.
Experimental: After the final wash, plates were incubated with 100 μl/well ELISA substrate (Sigma # T8665). The reaction was stopped after 8 minutes at 25° C. with 100 μl/well 1N HCl and the absorbance was read at 450 nm. Data were analyzed using Graphpad Prism software and EC50 values were reported.
As a reminder, the EC50 is the concentration at which the effect is half-maximal. Low readings indicate a more potent agent, high ones a less potent agent. As to B1, a half-maximal effect (EC50) was put at 0.18 nM.

In turn, B2 came in with an EC50 of 0.16 nM.

Molecule B3 gave an EC50 of 0.17 nM.

In the case of B4, the EC50 is 0.17 nM.

The molecule B5 displayed an EC50 of 0.18 nM.

For the molecule B6, the EC50 is 0.18 nM.

Molecule B7 yielded an EC50 of 0.17 nM.

For another assay, the target named is T4, mouse DLL4-his (mouse, UniProt Q9JI71 27-532).
T4 construct: extracellular domain; not shown: his tag
T4 sequence (Q9JI71 27-532): as above
The assay is described as follows: ELISA on DLL4-his.
B1 showed an EC50 of 0.2 nM.

For B2, the EC50 turned out to be 0.19 nM.

The molecule B3 registered an EC50 of 0.2 nM.

B4: the EC50 was 0.19 nM.

In turn, B5 came in with an EC50 of 0.19 nM.

For B6, the response was half-maximal at 0.2 nM (EC50).

As to B7, the response was half-maximal at 0.17 nM (EC50).

The target of the next assay is T5, human DLL4 on the cell surface (human, UniProt Q9NR61 27-685).
T5 construct: whole, on cells; also called HEK293-hDLL4; hDLL4-293G
The assay is described as follows: FACS on DLL4 cells.
Experimental: (§3) Stable cell lines overexpressing cell-surface DLL4 were harvested from tissue culture flasks, washed four times and resuspended in phosphate buffered saline (PBS) containing 1% bovine serum albumin and 1 mM CaCl₂ (FACS buffer), 1.5×10³ cells were incubated with antibodies at various concentrations in FACS buffer for 60 minutes on ice. Cells were washed twice and 50 μL of R-phycoerythrin-conjugated anti-rat IgG. […] Following an incubation on ice (4° C., 60 minutes), cells were washed three times and resuspended in FACS buffer. Fluorescence was measured using a Becton Dickinson FACSCalibur-HTS (Becton Dickinson, San Jose. Calif., US). Data were analyzed using Graphpad Prism software and EC₅₀ values were reported as the concentration of antibody to achieve 50% of maximal DLL4 antibodies binding to DLL4 expressing cells.
B1 yielded a Kd of 2.29 nM.

On to B2, for which the Kd was determined as 7.81 nM.

For the molecule B4, binding was characterised by a dissociation constant (Kd) of 4.25 nM.

B5 came in with a Kd of 2.67 nM.

The molecule B6 gave a Kd of 5.2 nM.

As to B7, the Kd was determined as 2.28 nM.

A further assay concerns the target T6, mouse DLL4 on the cell surface (mouse, UniProt Q9JI71 27-686).
T6 construct: whole, on cells; also called HEK293-mDLL4; mDLL4-293G
The assay is described as follows: FACS on DLL4 cells.
Experimental: as §3
For the molecule B1, binding was characterised by a dissociation constant (Kd) of 0.74 nM.

B2: the affinity, expressed as Kd, was 2.9 nM.

Regarding B3, the Kd came to 1.15 nM.

Turning to B4, the Kd was 1.18 nM.

Molecule B5 displayed a Kd of 2.32 nM.

Molecule B6 registered a Kd of 0.87 nM. Compared with the last molecule, the Kd is about 2.7-fold lower.

Take B7: the Kd is 2.24 nM.

A further assay has as its target T5, human DLL4 on the cell surface. Put plainly: FACS on DLL4 cells. The source holds these as a separate data set.
B8 had an EC50 of 8 nM. In other words, the single-digit nanomolar range.

On to B9, for which the EC50 was 3.15 nM.

B11 had an EC50 of 0.22 nM.

For the molecule B10, the EC50 came to 4.46 nM. Compared with the last molecule, the EC50 is about 20-fold higher.

The target of another assay is T6, mouse DLL4 on the cell surface. The assay is described as follows: FACS on DLL4 cells. This is another data set of the same source.
With B8, a half-maximal effect (EC50) was put at 2.57 nM. That is a single-digit nanomolar value.

On to B9, for which the EC50 is 0.88 nM.

The molecule B11 returned an EC50 of 0.47 nM. This EC50 is about 1.9-fold lower than that of the molecule before.

B10 yielded an EC50 of 1.94 nM.

Another assay has as its target T5, human DLL4 on the cell surface. The assay is described as follows: cell-based or functional assay.
B8: the “Inhibition of Notch activation via huDLL4 cells, coculture (IC50, nM)” value (“Inhibition” for short) came to 1 nM.

Take B9: the “Inhibition” value came to 0.85 nM.

B12: the “Inhibition” value came out at 0.65 nM.

For B11, the “Inhibition” value was 2.4 nM.

Turning to B10, the “Inhibition” value is 0.41 nM.

For another assay the target is unchanged. The assay is described as follows: competition FACS, competitor huNotch-1.
Experimental: (§4) Notch blocking assay: Briefly, stable cell lines overexpressing cell-surface DLL4 were harvested from tissue culture flasks and re-suspended in phosphate buffered saline (PBS) containing 1% bovine serum albumin and 1 mM CaCl₂ (FACS buffer). HEK293-hDLL4 or HEK293-mDLL4 cells were dispensed into 96-well plate (v-bottom) at 1.5×10⁵ cells/well in FACS buffer. […] After washing the cells two times with FACS buffer, 50 μL of R-phycoerythrin-conjugated streptavidin (1:150 dilution in FACS buffer) (Jackson ImmunoResearch, West Grove, Pa., US, catalog no. 016-110-084) were added. Following an incubation on ice (4° C., 60 minutes), cells were washed three times and resuspended in FACS buffer. Fluorescence was measured using a Becton Dickinson FACSCalibur-HTS (Becton Dickinson, San Jose. Calif.).
What is called IC50 is the concentration that inhibits the measured activity by half. Read a low IC50 as greater potency in that assay. B1 showed an IC50 of 6.75 nM.

On to B2, for which the IC50 is 6.38 nM.

The molecule B3 came in with an IC50 of 5.82 nM.

Regarding B4, the IC50 is 8.16 nM.

The molecule B5 showed an IC50 of 9.25 nM.

Regarding B6, the IC50 was determined as 5.61 nM. This IC50 is about 1.6-fold lower than that of the molecule before.

For the molecule B7, the IC50 was 7.81 nM.

For another assay, the target named is T6, mouse DLL4 on the cell surface. Put plainly: competition FACS, competitor huNotch-1.
Experimental: as §4
B1: the IC50 was determined as 1.25 nM.

B2 showed an IC50 of 1.76 nM.

The molecule B3 had an IC50 of 1.71 nM.

The molecule B4 came in with an IC50 of 1.53 nM.

The molecule B5 showed an IC50 of 2.3 nM.

Turning to B6, the IC50 came out at 1.23 nM.

In turn, B7 showed an IC50 of 1.94 nM.

The next assay has as its target T5, human DLL4 on the cell surface. Put plainly: competition FACS, competitor huNotch-1. This is another data set of the same source.
Experimental: as §4
Take B8: the IC50 was determined as 19.8 nM.

The molecule B9 displayed an IC50 of 3.03 nM. This IC50 is about 6.5-fold lower than that of the molecule before.

As for B11, the IC50 stood at 1.82 nM.

For B10, the IC50 amounted to 4 nM.

Another assay has as its target T6, mouse DLL4 on the cell surface. The assay is described as follows: competition FACS, competitor huNotch-1. The source holds these as a separate data set.
Experimental: as §4
B9 returned an IC50 of 0.26 nM.

For the molecule B11, the IC50 is 0.21 nM.

In turn, B10 came in with an IC50 of 0.33 nM.

The next assay deals with T1, human DLL4 extracellular domain. Put plainly: competition ELISA, competitor huNotch-1.
Experimental: (§5) Plates were then washed 3 times with wash buffer (PBS, 0.05% Tween-20) and blocked with 200 μl/well blocking buffer (D-PBS, 1% BSA, 1 mM CaCl₂, 0.05% Tween-20) for 1 hour at 25° C. […] Assay plates were washed after blocking, and incubated with DLL4/antibody mixtures (100 μl/well, 1 hour at 25° C. with shaking). […] After a final wash, plates were developed using 100 μl/well substrate (TMB Sigma # T8665), and the reaction was stopped after an 8-minute incubation at 25° C. (for muDLL4 ELISA) and after 20 minute incubation at 25° C. (for huDLL4 ELISA) using 100 μl/well 1N HCl, and the absorbance was read at 450 nm.
As for B1, the half-maximal inhibitory concentration (IC50) is 2.5 nM.

As for B2, the IC50 was found to be 2.6 nM.

As to B3, the IC50 was determined as 2.7 nM.

For B4, the IC50 was found to be 2.5 nM. This IC50 and that of the molecule before are within 1.5-fold of each other.

Turning to B5, the IC50 came out at 2.5 nM.

Consider B6, for which the 50% inhibitory concentration (IC50) was found to be 2.6 nM.

In turn, B7 came in with an IC50 of 2.4 nM.

Another assay addresses T2, mouse DLL4 extracellular domain. Put plainly: competition ELISA, competitor huNotch-1.
Experimental: as §5
For B1, the IC50 was 2.1 nM.

B2 gave an IC50 of 2.4 nM.

B3 showed an IC50 of 2.9 nM.

The molecule B4 displayed an IC50 of 2.9 nM. This lies in the single-digit nanomolar range.

In turn, B5 came in with an IC50 of 2.6 nM.

B6 had an IC50 of 2.2 nM. The IC50 values of the last two molecules are within 1.5-fold of each other.

For the molecule B7, the IC50 turned out to be 2.4 nM.
